# Results from US11135246B2, “Peptides and combination of peptides for use in immunotherapy against leukemias and other cancers” (Immatics Biotechnologies GmbH, priority 2017, dated 2021).
# Target: HLA-B*07:02 (Homo sapiens, UniProt P01889)
# Assay: MHC binding assay, UV-ligand exchange with β2m ELISA, HLA-B*07:02
# Details: binding to HLA-B*07:02, UV-ligand exchange
# Description: (§1) Candidate peptides for T cell based therapies according to the present invention were further tested for their MHC binding capacity (affinity). The individual peptide-MHC complexes were produced by UV-ligand exchange, where a UV-sensitive peptide is cleaved upon UV-irradiation, and exchanged with the peptide of interest as analyzed. Only peptide candidates that can effectively bind and stabilize the peptide-receptive MHC molecules prevent dissociation of the MHC complexes. To determine the yield of the exchange reaction, an ELISA was performed based on the detection of the light chain (β2m) of stabilized MHC complexes. The assay was performed as generally described in Rodenko et al. (Rodenko et al., 2006).
# (§2) 96 well MAXISorp plates (NUNC) were coated over night with 2 ug/ml streptavidin in PBS at room temperature, washed 4× and blocked for 1 h at 37° C. in 2% BSA containing blocking buffer. Refolded HLA-A*02:01/MLA-001 monomers served as standards, covering the range of 15-500 ng/ml. Peptide-MHC monomers of the UV-exchange reaction were diluted 100-fold in blocking buffer. Samples were incubated for 1 h at 37° C., washed four times, incubated with 2 ug/ml HRP conjugated anti-β2m for 1 h at 37° C., washed again and detected with TMB solution that is stopped with […]. Absorption was measured at 450 nm. Candidate peptides that show a high exchange yield (preferably higher than 50%, most preferred higher than 75%) are generally preferred for a generation and production of antibodies or fragments thereof, and/or T cell receptors or fragments thereof, as they show sufficient avidity to the MHC molecules and prevent dissociation of the MHC complexes.
row,Substance,"Peptide exchange (MHC class I binding score, peptide exchange yield)"
1,225 (LPARFYQAL; listed as Homo sapiens) [compound 225],“++++” (>75% = ++++)
2,227 (APINKAGSFL; listed as Homo sapiens) [compound 227],“++++” (>75% = ++++)
3,233 (SPRVYWLGL; listed as Homo sapiens) [compound 233],“+++” (>50 = +++)
4,234 (SPKESENAL; listed as Homo sapiens) [compound 234],“++” (>20% = ++)
5,238 (SPRSWIQVQI; listed as Homo sapiens) [compound 238],“+++” (>50 = +++)
6,239 (APSKTSLIM; listed as Homo sapiens) [compound 239],“++” (>20% = ++)
7,241 (APAPAEKTPV; listed as Homo sapiens) [compound 241],“+++” (>50 = +++)
8,243 (LPKVQSIQL; listed as Homo sapiens) [compound 243],“++” (>20% = ++)
9,244 (MPSSDTTVTF; listed as Homo sapiens) [compound 244],“+++” (>50 = +++)
10,247 (QPSPARAPAEL; listed as Homo sapiens) [compound 247],“++” (>20% = ++)
11,248 (LPYDSKHQI; listed as Homo sapiens) [compound 248],“++” (>20% = ++)
12,250 (VPNLQTVSV; listed as Homo sapiens) [compound 250],“++” (>20% = ++)
13,251 (QPRLFTMDL; listed as Homo sapiens) [compound 251],“+++” (>50 = +++)
14,253 (RPFADLLGTAF; listed as Homo sapiens) [compound 253],“+++” (>50 = +++)

# Second part, the substance after the results:
row,"Peptide exchange (MHC class I binding score, peptide exchange yield)",Substance
1,“++” (>20% = ++),106 (KAFKWFSAL; listed as Homo sapiens) [compound 106]
2,“++” (>20% = ++),226 (YLNRHLHTW; listed as Homo sapiens) [compound 226]
3,“++++” (>75% = ++++),228 (SPRITFPSL; listed as Homo sapiens) [compound 228]
4,“++++” (>75% = ++++),229 (SPLGSLARSSL; listed as Homo sapiens) [compound 229]
5,“+++” (>50 = +++),230 (KPMKSVLVV; listed as Homo sapiens) [compound 230]
6,“++” (>20% = ++),231 (MPLSTIREV; listed as Homo sapiens) [compound 231]
7,“+++” (>50 = +++),232 (APRPAGSYL; listed as Homo sapiens) [compound 232]
8,“++” (>20% = ++),235 (SPSLPSRTL; listed as Homo sapiens) [compound 235]
9,“+++” (>50 = +++),236 (RPSNKAPLL; listed as Homo sapiens) [compound 236]
10,“++” (>20% = ++),237 (SPWLHAPSL; listed as Homo sapiens) [compound 237]
11,“+++” (>50 = +++),240 (SPSLPNITL; listed as Homo sapiens) [compound 240]
12,“++” (>20% = ++),242 (SPFSFHHVL; listed as Homo sapiens) [compound 242]
13,“++” (>20% = ++),245 (SPLSHHSQL; listed as Homo sapiens) [compound 245]
14,“++” (>20% = ++),246 (YPGWHSTTI; listed as Homo sapiens) [compound 246]
15,“++” (>20% = ++),249 (SPADHRGYASL; listed as Homo sapiens) [compound 249]
16,“++” (>20% = ++),252 (RPHIPISKL; listed as Homo sapiens) [compound 252]
17,“+++” (>50 = +++),254 (SPRNLQPQRAAL; listed as Homo sapiens) [compound 254]
18,“++” (>20% = ++),255 (YPGSDRIML; listed as Homo sapiens) [compound 255]

# Target: HLA-A*03:01 (Homo sapiens, UniProt P04439)
# Assay: MHC binding assay, UV-ligand exchange with β2m ELISA, HLA-A*03:01
# Details: peptide exchange yield
# Description: as §1, §2
row,Substance,Peptide exchange
1,29 (RIYDEILQSK; listed as Homo sapiens) [compound 29],“++” (>20% = ++)
2,35 (ATKSPAKPK; listed as Homo sapiens) [compound 35],“+++” (>50 = +++)
3,37 (KAKKPAGAAK; listed as Homo sapiens) [compound 37],“+++” (>50 = +++)
4,38 (KARKSAGAAK; listed as Homo sapiens) [compound 38],“+++” (>50 = +++)
5,40 (RSKEYIRKK; listed as Homo sapiens) [compound 40],“+” (>10% = +)
6,41 (SVAHLLSKY; listed as Homo sapiens) [compound 41],“++” (>20% = ++)
7,43 (KLMETSMGF; listed as Homo sapiens) [compound 43],“++” (>20% = ++)
8,46 (RVFPSPMRI; listed as Homo sapiens) [compound 46],“++” (>20% = ++)
9,47 (SVLDLSVHK; listed as Homo sapiens) [compound 47],“++” (>20% = ++)
10,48 (RIKPPGPTAVPK; listed as Homo sapiens) [compound 48],“+++” (>50 = +++)
11,51 (ASTTVLALK; listed as Homo sapiens) [compound 51],“++” (>20% = ++)
12,209 (KTLPAMLGTGK; listed as Homo sapiens) [compound 209],“++” (>20% = ++)
13,211 (ATYNKQPMYR; listed as Homo sapiens) [compound 211],“+++” (>50 = +++)
14,213 (RVYNIYIRR; listed as Homo sapiens) [compound 213],“++” (>20% = ++)
15,214 (ATGAATPKK; listed as Homo sapiens) [compound 214],“+++” (>50 = +++)
16,216 (RIKAPSRNTIQK; listed as Homo sapiens) [compound 216],“++” (>20% = ++)
17,217 (TTVPHVFSK; listed as Homo sapiens) [compound 217],“++” (>20% = ++)
18,218 (RVLTGVFTK; listed as Homo sapiens) [compound 218],“++” (>20% = ++)
19,220 (SISNLVFTY; listed as Homo sapiens) [compound 220],“++” (>20% = ++)

# Other lines, results leading:
row,Peptide exchange,Substance
1,“++” (>20% = ++),28 (VILESIFLK; listed as Homo sapiens) [compound 28]
2,“++” (>20% = ++),30 (RTYGFVLTF; listed as Homo sapiens) [compound 30]
3,“++” (>20% = ++),32 (KTSNIVKIK; listed as Homo sapiens) [compound 32]
4,“++” (>20% = ++),33 (SVFEGDSIVLK; listed as Homo sapiens) [compound 33]
5,“+++” (>50 = +++),34 (SVYSETSNMDK; listed as Homo sapiens) [compound 34]
6,“++” (>20% = ++),36 (KAKAAAKPK; listed as Homo sapiens) [compound 36]
7,“++” (>20% = ++),42 (SVSSSTHFTR; listed as Homo sapiens) [compound 42]
8,“++” (>20% = ++),44 (KVYDPVSEY; listed as Homo sapiens) [compound 44]
9,“+++” (>50 = +++),45 (VVFPFPVNK; listed as Homo sapiens) [compound 45]
10,“++” (>20% = ++),49 (GLLEEALFY; listed as Homo sapiens) [compound 49]
11,“+++” (>50 = +++),52 (KAFNQSSTLTK; listed as Homo sapiens) [compound 52]
12,“++” (>20% = ++),208 (KLNPQQAPLY; listed as Homo sapiens) [compound 208]
13,“+++” (>50 = +++),210 (RMYSQLKTLQK; listed as Homo sapiens) [compound 210]
14,“+” (>10% = +),212 (LLWHWDTTQSLK; listed as Homo sapiens) [compound 212]
15,“++” (>20% = ++),215 (KATGAATPK; listed as Homo sapiens) [compound 215]
16,“+++” (>50 = +++),219 (HSYSSPSTK; listed as Homo sapiens) [compound 219]
